# Measured values taken from patent US20230357429A1 (JANUX THERAPEUTICS, published 2023).
# Changes are numbered by the printed parent chain. Names may count otherwise. Where no end group is shown, it is not given here.
# T1: Peptide-7 (cysteine pairing not given here; also: biotinylated, site not given here)
# T1 peptide: EDFCKLYNWPICYQ
# T2: Peptide-14 (cysteine pairing not given here; also: biotinylated (site not given here))
# T2 peptide: LDFCKIYDWPICHL
# T3: Peptide-13 (cysteine pairing not given here; also: biotinylated (site not given here))
# T3 peptide: VDFCELYRWPICNS
# T4: Peptide-3 (cysteine pairing not given here; also: biotinylated, site not given here)
# T4 peptide: IDFCMLYNWPICAG
# T5: Peptide-2 (cysteine pairing not given here; also: biotinylated (site not given here))
# T5 peptide: IDFCAVYKWPVCQV
# T6: Peptide-6 (cysteine pairing not given here; also: biotinylated, site not given here)
# T6 peptide: IDFCLIYNWPVCDT
# T7: Peptide-4 (cysteine pairing not given here; also: biotinylated, site not given here)
# T7 peptide: VDFCKIYAWPICGS
# T8: Peptide-20 (cysteine pairing not given here; also: biotinylated (site not given here))
# T8 peptide: VDFCSFYRWPICET
# T9: Peptide-1 (cysteine pairing not given here; also: biotinylated (site not given here))
# T9 peptide: IDFCAMYQWPICDT
# T10: Peptide-18 (cysteine pairing not given here; also: biotinylated (site not given here))
# T10 peptide: MDFCQIYDWPICRL
# T11: Peptide-26 (cysteine pairing not given here; also: biotinylated, site not given here)
# T11 peptide: DNLICVKNLWCWIA
# T12: Peptide-10 (cysteine pairing not given here; also: biotinylated (site not given here))
# T12 peptide: IDFCAIYQWPVCRS
# T13: Peptide-12 (cysteine pairing not given here; also: biotinylated (site not given here))
# T13 peptide: PDFCAVYRWPICYQ
# T14: Peptide-17 (cysteine pairing not given here; also: biotinylated (site not given here))
# T14 peptide: IDFCLLYDWPICGR
# T15: Peptide-27 (cysteine pairing not given here; also: biotinylated, site not given here)
# T15 peptide: FSLVCVRNLYCWNV
# T16: Peptide-5 (cysteine pairing not given here; also: biotinylated, site not given here)
# T16 peptide: VDFCKLYNWPVCQT
# T17: Peptide-25 (cysteine pairing not given here; also: biotinylated (site not given here))
# T17 peptide: VDFCKIYSWPVCHQ
# T18: Peptide-33 (cysteine pairing not given here; also: biotinylated, site not given here)
# T18 peptide: PDFCYMYNWPVCVT
# T19: Peptide-37 (cysteine pairing not given here; also: biotinylated, site not given here)
# T19 peptide: VDFCYLYNWPVCSK
# T20: Peptide-8 (cysteine pairing not given here; also: biotinylated, site not given here)
# T20 peptide: VDFCGLYHWPICYQ
# T21: Peptide-63 (cysteine pairing not given here; also: biotinylated, site not given here)
# T21 peptide: IDFCLIYNWPVCDT
# T22: Peptide-36 (cysteine pairing not given here; also: biotinylated, site not given here)
# T22 peptide: VDFCYQYGWPICSR
# T23: Peptide-62 (cysteine pairing not given here; also: biotinylated, site not given here)
# T23 peptide: IDFCAVYKWPVCQV
# T24: Peptide-42 (cysteine pairing not given here; also: biotinylated, site not given here)
# T24 peptide: IDFCAMYHWPICDT
# T25: Peptide-32 (cysteine pairing not given here; also: biotinylated, site not given here)
# T25 peptide: PDFCYMYGWPICDS
# T26: Peptide-41 (cysteine pairing not given here; also: biotinylated, site not given here)
# T26 peptide: VDFCGLYHWPICYQVY
# T27: Peptide-43 (cysteine pairing not given here; also: biotinylated, site not given here)
# T27 peptide: VDFCALYHWPICYQ
# T28: Peptide-40 (cysteine pairing not given here; also: biotinylated, site not given here)
# T28 peptide: VDFCYLYSWPICTK
# T29: Peptide-64 (cysteine pairing not given here; also: biotinylated, site not given here)
# T29 peptide: PDFCAVYRWPICYQ
# T30: Peptide-39 (cysteine pairing not given here; also: biotinylated, site not given here)
# T30 peptide: VDFCGLYHWPICYQVD
# T31: Peptide-38 (cysteine pairing not given here; also: biotinylated, site not given here)
# T31 peptide: VDFCSIYHWPVCYV
# T32: Peptide-35 (cysteine pairing not given here; also: biotinylated, site not given here)
# T32 peptide: EDFCYWYQWPICSD
# B1: TBD-1 wt (Fab, V domains shown)
# VH: QVQLQQSGSELKKPGASVKVSCKASGYTFTNYGMNWVKQAPGQGLKWMGWINTYTGEPTYTDDFKGRFAFSLDTSVSTAYLQISSLKADDTAVYFCARGGFGSSYWYFDVWGQGSLVTVSS
# VL: DIQLTQSPSSLSASVGDRVSITCKASQDVSIAVAWYQQKPGKAPKLLIYSASYRYTGVPDRFSGSGSGTDFTLTISSLQPEDFAVYYCQQHYITPLTFGAGTKVEIKR
# notes: Fab; the heavy chain entry is VH-CH1; also called wild-type anti-TROP2 Fab (hRS7); TROP2 Fab
# B2: TBD-21 (HC F108A) (Fab, V domains shown)
# VH: B1 VH with F108A
# VL: B1 VL
# notes: Fab; also called HC F108A mutant
# B3: TBD-17 (HC S104A) (Fab, V domains shown)
# VH: B1 VH with S104A
# VL: B1 VL
# notes: Fab; also called HC S104A mutant
# B4: TBD-11 (HC R98A) (Fab, V domains shown)
# VH: B1 VH with R98A
# VL: B1 VL
# notes: Fab; also called HC R98A mutant
# B5: TBD-6 (LC I93A) (Fab, V domains shown)
# VH: B1 VH
# VL: B1 VL with I93A
# notes: Fab; also called LC I93A mutant
# Biological target: T1, Peptide-7
# Experiment: ELISA, Fab on captured biotin-peptide
# Protocol: (§1) Binding was measured in a standard ELISA format. […] Bound TBDs were detected using a standard horse radish peroxidase conjugate secondary antibody. The ELISA signal was plotted versus the log-scale concentration of TBD. The concentrations of TBD required to observe half maximal binding signal (EC₅₀s) were calculated using Graphpad Prism software.
row,EC50 [nM],Binder
1,37.5,B1
2,27.4,B2
3,15.6,B3
4,343,B4
5,59.6,B5

# Biological target: T2, Peptide-14
# Experiment: ELISA, Fab on captured biotin-peptide
# Protocol: as §1
row,EC50 [nM],Binder
1,379,B1
2,53.3,B2
3,71,B3
4,332,B4
5,145,B5

# Biological target: T3, Peptide-13
# Experiment: ELISA, Fab on captured biotin-peptide
# Protocol: as §1
row,EC50 [nM],Binder
1,157,B1
2,22.6,B2
3,10,B3
4,388,B4
5,21.4,B5

# Biological target: T4, Peptide-3
# Experiment: ELISA, Fab on captured biotin-peptide
# Protocol: as §1
row,EC50 [nM],Binder
1,12.8,B1
2,12.3,B2
3,6.4,B3
4,246,B4
5,11.4,B5

# Biological target: T5, Peptide-2
# Experiment: ELISA, Fab on captured biotin-peptide
# Protocol: as §1
row,EC50 [nM],Binder
1,13.7,B1
2,12.9,B2
3,5.7,B3
4,204,B4
5,9.9,B5

# Biological target: T6, Peptide-6
# Experiment: ELISA, Fab on captured biotin-peptide
# Protocol: as §1
row,EC50 [nM],Binder
1,28.5,B1
2,24.9,B2
3,10.1,B3
4,363,B4
5,15,B5

# Biological target: T7, Peptide-4
# Experiment: ELISA, Fab on captured biotin-peptide
# Protocol: as §1
row,EC50 [nM],Binder
1,9.2,B1
2,12.7,B2
3,6.5,B3
4,179,B4
5,15.3,B5

# Biological target: T8, Peptide-20
# Experiment: ELISA, Fab on captured biotin-peptide
# Protocol: as §1
row,EC50 [nM],Binder
1,600,B1
2,89,B2
3,115,B3
4,140,B5

# Biological target: T9, Peptide-1
# Experiment: ELISA, Fab on captured biotin-peptide
# Protocol: as §1
row,EC50 [nM],Binder
1,22.5,B1
2,13.5,B2
3,7.3,B3
4,292,B4
5,14.8,B5

# Biological target: T10, Peptide-18
# Experiment: ELISA, Fab on captured biotin-peptide
# Protocol: as §1
row,EC50 [nM],Binder
1,474,B1
2,38,B2
3,36.7,B3
4,298,B4
5,83.2,B5

# Biological target: T11, Peptide-26
# Experiment: ELISA, Fab on captured biotin-peptide
# Protocol: as §1
row,EC50 [nM],Binder
1,85,B1
2,390,B2
3,379,B3

# Biological target: T12, Peptide-10
# Experiment: ELISA, Fab on captured biotin-peptide
# Protocol: as §1
row,EC50 [nM],Binder
1,62.6,B1
2,15.2,B2
3,6.5,B3
4,272,B4
5,8.5,B5

# Biological target: T13, Peptide-12
# Experiment: ELISA, Fab on captured biotin-peptide
# Protocol: as §1
row,EC50 [nM],Binder
1,35.9,B1
2,10.1,B2
3,6.8,B3
4,157,B4
5,18.2,B5

# Biological target: T14, Peptide-17
# Experiment: ELISA, Fab on captured biotin-peptide
# Protocol: as §1
row,EC50 [nM],Binder
1,132,B1
2,16.4,B2
3,8.5,B3
4,191,B4
5,16.5,B5

# Biological target: T15, Peptide-27
# Experiment: ELISA, Fab on captured biotin-peptide
# Protocol: as §1
row,EC50 [nM],Binder
1,23.9,B1
2,149,B2
3,107,B3
4,178,B5

# Biological target: T16, Peptide-5
# Experiment: ELISA, Fab on captured biotin-peptide
# Protocol: as §1
row,EC50 [nM],Binder
1,16.5,B1
2,15.6,B2
3,5.4,B3
4,232,B4
5,9.9,B5

# Biological target: T17, Peptide-25
# Experiment: ELISA, Fab on captured biotin-peptide
# Protocol: as §1
row,EC50 [nM],Binder
1,217,B1
2,42.3,B2
3,35,B3
4,10.9,B5

# Biological target: T18, Peptide-33
# Experiment: ELISA, Fab on captured biotin-peptide
# Protocol: as §1
row,EC50 [nM],Binder
1,29.7,B1
2,22.9,B2
3,24.1,B3
4,144,B4
5,9.6,B5

# Biological target: T19, Peptide-37
# Experiment: ELISA, Fab on captured biotin-peptide
# Protocol: as §1
row,EC50 [nM],Binder
1,31.7,B1
2,27.3,B2
3,19.5,B3
4,149,B4
5,9.3,B5

# Biological target: T4, Peptide-3
# Experiment: ELISA, Fab on captured biotin-peptide
# Remark: another data set of the same source
# Protocol: as §1
row,EC50 [nM],Binder
1,164,B1
2,30.8,B2
3,23,B3
4,296,B4
5,18.3,B5

# Biological target: T20, Peptide-8
# Experiment: ELISA, Fab on captured biotin-peptide
# Protocol: as §1
row,EC50 [nM],Binder
1,35.2,B1
2,12.9,B2
3,8,B3
4,86.4,B4
5,8.5,B5

# Biological target: T21, Peptide-63
# Experiment: ELISA, Fab on captured biotin-peptide
# Protocol: as §1
row,EC50 [nM],Binder
1,162,B1
2,39.7,B2
3,30,B3
4,229,B4
5,9.5,B5

# Biological target: T22, Peptide-36
# Experiment: ELISA, Fab on captured biotin-peptide
# Protocol: as §1
row,EC50 [nM],Binder
1,41.4,B1
2,27,B2
3,30.2,B3
4,60.1,B4
5,23.8,B5

# Biological target: T23, Peptide-62
# Experiment: ELISA, Fab on captured biotin-peptide
# Protocol: as §1
row,EC50 [nM],Binder
1,81.4,B1
2,14.3,B2
3,9.2,B3
4,136,B4
5,5.1,B5

# Biological target: T24, Peptide-42
# Experiment: ELISA, Fab on captured biotin-peptide
# Protocol: as §1
row,EC50 [nM],Binder
1,28.5,B1
2,13.8,B2
3,5.5,B3
4,86.4,B4
5,5.7,B5

# Biological target: T25, Peptide-32
# Experiment: ELISA, Fab on captured biotin-peptide
# Protocol: as §1
row,EC50 [nM],Binder
1,34.6,B1
2,27.1,B2
3,35.1,B3
4,87.7,B4
5,20.1,B5

# Biological target: T26, Peptide-41
# Experiment: ELISA, Fab on captured biotin-peptide
# Protocol: as §1
row,EC50 [nM],Binder
1,102,B1
2,47.2,B2
3,28.9,B3
4,159,B4
5,41,B5

# Biological target: T27, Peptide-43
# Experiment: ELISA, Fab on captured biotin-peptide
# Protocol: as §1
row,EC50 [nM],Binder
1,27.5,B1
2,12,B2
3,4.9,B3
4,77.5,B4
5,7.2,B5

# Biological target: T28, Peptide-40
# Experiment: ELISA, Fab on captured biotin-peptide
# Protocol: as §1
row,EC50 [nM],Binder
1,39.7,B1
2,45.8,B2
3,27,B3
4,310,B4
5,30.4,B5

# Biological target: T29, Peptide-64
# Experiment: ELISA, Fab on captured biotin-peptide
# Protocol: as §1
row,EC50 [nM],Binder
1,28.3,B1
2,11,B2
3,3.8,B3
4,61.7,B4
5,6.4,B5

# Biological target: T30, Peptide-39
# Experiment: ELISA, Fab on captured biotin-peptide
# Protocol: as §1
row,EC50 [nM],Binder
1,95.2,B1
2,32.7,B2
3,16.4,B3
4,151,B4
5,32.1,B5

# Biological target: T31, Peptide-38
# Experiment: ELISA, Fab on captured biotin-peptide
# Protocol: as §1
row,EC50 [nM],Binder
1,178,B1
2,26.1,B2
3,31.8,B3
4,290,B4
5,9.8,B5

# Biological target: T32, Peptide-35
# Experiment: ELISA, Fab on captured biotin-peptide
# Protocol: as §1
row,EC50 [nM],Binder
1,261,B1
2,331,B2
3,215,B3
4,131,B5
